Substitutions are numbered along the chain they refer to. Numbers in names are those of the source.

We go through five molecules from patent US20110239311A1, “Agonists of NR2F6 For Immunosupression” (Medizinische Universitat Innsbruck, priority 2008, published 2011).

One test relates to CD4+ T cells. Briefly: IL-2 secretion of transfected CD4+ T cells upon CD3 plus CD28 stimulation. Type of test: cell-based, mouse. The note with it: vs control transfection. As for the experimental part: CD4+ T cells were negatively selected by magnetic cell sorting (Miltenyi Biotec). T cell populations were typically 95% CD4+, as determined by staining and flow cytometry. Cells were resuspended in solution from Nucleofactor mouse T cell kit and program X-01 following the Amaxa guidelines for cell-line transfection. In brief, up to 1×10^7 cells were mixed with 1.5 μM of synthetic ON-TARGETpIus siRNA predesigned by Dharmacon (i.e., order code 045088) as pool (see SEQ ID NOs: 19 to 26) or ON-TARGETplussiCONTROL nontargeting pool were nucleofected with the Amaxy Nucleofactor apparatus and immediately transferred into 37° C. prewarmed culture medium and cultured for a minimum of 24 hours before experimental analysis; see also FIG. 16.
Analysis of cytokine production: Cytokine production of mouse CD4^+ T cells after Th17 polarizing stimulation was assessed via the BioPlex technology (BioRad) according to manufacturer's instructions.

Test [1] deals with IL-17A promoter:luciferase reporter. Briefly: IL-17A promoter:luciferase reporter transrepression assay in Jurkat cells. The format is cell-based, human. As to conditions: transient overexpression in Jurkat cells. As for the experimental part: (§1) Jurkat-TAg cells (a kind gift from Dr. Crabtree, Stanford University, CA) have been transiently transfected with circular plasmid DNA by electroporation (BTX-T820 ElectroSquarePorator™, ITC, Biotech, Heidelberg, Germany), using predetermined optimal conditions (1×10^7 cells in 200 μl RPMI medium at 450 V/cm and 5 pulses of 99 msec), yielding approx. 40% transfection efficiency. NF-AT:AP-1 reporter gene expression was measured in transient cotransfection assays using 10 μg pSRα-CD28, 15 μg of the GFP or Nr2f6 expression vectors and 15 μg of the promoter firefly luciferase reporter (RLU1). The latter were a NF-AT:AP-1 composite site reporter (Macian et al., 2001), a NF-AT reporter construct containing three tandem copies of the NF-AT minimal consensus sequence and the proximal IL-17A promoter reporter (Liu et al., 2004). The proximal IL-17A promoter is also described elsewhere herein. After 21 h cells were stimulated with solid-phase CD3 and CD28 agonistic antibodies for 16 h or left unstimulated, as indicated and the firefly luciferase was measured employing the luciferase detection kit (Promega, Madison, Wis.) and the βJet-Luminometer (WALLAC, Turku, Finland).
Background: In a reporter assay the amount or activity of a reporter protein is the signal.

Test [2] has as its system NFAT/AP-1 promoter:luciferase reporter. Briefly: NFAT/AP-1 promoter:luciferase reporter transrepression assay in Jurkat cells. As to conditions: transient overexpression in Jurkat cells. The format is cell-based, human. As for the experimental part:
as §1

The next test addresses T1, NR2F6 (Homo sapiens, UniProt P10588).
T1 construct: expressed in transfected cells; host or cells: Jurkat T cells (transient electroporation)
T1 sequence (P10588 1-404): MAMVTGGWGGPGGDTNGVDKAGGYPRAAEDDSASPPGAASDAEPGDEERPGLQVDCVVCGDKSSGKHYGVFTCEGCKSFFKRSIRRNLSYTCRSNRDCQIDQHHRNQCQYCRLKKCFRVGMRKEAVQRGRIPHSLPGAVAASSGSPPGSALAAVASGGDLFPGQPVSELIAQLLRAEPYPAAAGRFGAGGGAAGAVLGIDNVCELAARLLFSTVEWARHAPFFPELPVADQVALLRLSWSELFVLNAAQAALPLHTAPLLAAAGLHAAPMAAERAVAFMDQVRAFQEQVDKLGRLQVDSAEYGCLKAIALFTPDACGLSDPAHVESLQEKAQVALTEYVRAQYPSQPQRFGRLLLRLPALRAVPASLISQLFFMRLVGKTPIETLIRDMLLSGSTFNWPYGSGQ
Briefly: RARE containing renilla luciferase reporter assay in NR2F6 transfected Jurkat T cells. The format is cell-based. The note with it: CD3/CD28 with or without RA 20 microM. As for the experimental part:
Jurkat T cells were maintained in RPMI medium supplemented with 10% FCS (Life Technologies, Inc.). Transient transfection of cells was performed by electroporation in a BTX-T820 ElectroSquarePorator (ITC, Biotech, Heidelberg, Germany) apparatus using predetermined optimal conditions: 2×10^7 cells at 450 V/cm and 5 pulses of 99 msec. Optimix medium (Equibio, Kent, UK) was used for studies of promoter reporter gene expression. Reporter gene expression was measured in co-transfection assays using 15 μg of the NR2F6 wild type or mutant expression vectors and 5 μg of the RARE containing renilla luciferase reporter vector pTK-Renilla-Luc (Promega, Medison, Wi). After 24 hrs cells were stimulated with solid phase CD3 and CD28 antibodies with or without retinoic acid (RA at 20 microM) for 16 hrs, as indicated.

The next test has as its target T2, NR2F6-ER (UniProt P10588+P19785, G525R).
T2 construct: expressed in transfected cells; host or cells: Jurkat T cells (transient electroporation)
T2 sequence (P10588+P19785 with tags, fused parts or gaps P19785:G525R): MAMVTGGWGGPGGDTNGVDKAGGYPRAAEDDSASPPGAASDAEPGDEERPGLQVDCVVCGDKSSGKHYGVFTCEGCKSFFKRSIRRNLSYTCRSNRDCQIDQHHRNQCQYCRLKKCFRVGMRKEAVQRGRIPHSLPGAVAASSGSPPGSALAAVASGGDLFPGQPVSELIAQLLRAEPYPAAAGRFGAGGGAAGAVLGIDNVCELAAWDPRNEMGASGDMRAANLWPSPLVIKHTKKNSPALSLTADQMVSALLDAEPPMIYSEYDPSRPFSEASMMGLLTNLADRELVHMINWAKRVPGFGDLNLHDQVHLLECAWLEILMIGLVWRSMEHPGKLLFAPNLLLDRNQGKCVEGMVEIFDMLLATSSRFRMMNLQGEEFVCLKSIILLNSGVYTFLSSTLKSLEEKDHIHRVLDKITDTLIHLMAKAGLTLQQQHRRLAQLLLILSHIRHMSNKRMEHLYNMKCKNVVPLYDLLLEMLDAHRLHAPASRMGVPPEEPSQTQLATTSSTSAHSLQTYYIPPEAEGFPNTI
Briefly: NF-AT/AP-1 promoter luciferase reporter assay in NR2F6-ER transfected Jurkat T cells. The format is cell-based, human. The note with it: transiently transfected Jurkat T cells.

Method for NR2F6-ER: Jurkat T cells were maintained in RPMI medium supplemented with 10% FCS (Life Technologies, Inc.). Transient transfection of cells was performed by electroporation in a BTX-T820 ElectroSquarePorator (ITC, Biotech, Heidelberg, Germany) apparatus using predetermined optimal conditions: 2×10^7 cells at 450 V/cm and 5 pulses of 99 msec. Optimix medium (Equibio, Kent, UK) was used for studies of promoter reporter gene expression. Reporter gene expression was measured in co-transfection assays using 15 μg of the NR2F6 wild-type or mutant expression vectors and 15 μg of the AP-1/NF-AT promoter firefly luciferase reporter (RLU1). For normalization 0.3 μg of the renilla luciferase reporter vector pTK-Renilla-Luc (Promega, Medison, Wi) (RLU2) has been used.

B1: NR2F6: recombinant overexpressed nuclear receptor subfamily 2, group F, member 6 (Ear2), SEQ ID NO: 2 (protein, listed as Homo sapiens)
chain: T1 sequence (P10588 1-404)
Consider B1, for which the IL-2 cytokine secretion result in the test with CD4+ T cells is recorded as “significantly suppresses IL-2 secretion responses”. Moreover, the “trans-repression of CD3/CD28 activation-induced IL-17A promoter:luciferase reporter” value in test [1] was “robust and reproducible trans-repression”. Further, in test [2], the “trans-repression of CD3/CD28 activation-induced NFAT/AP-1 promoter:luciferase reporter” value was “robust and reproducible trans-repression”.

B2: C112S: C112S zinc finger mutant of NR2F6, defective in DNA binding, SEQ ID NOs: 30 and 31 (protein)
chain: T1 sequence (P10588 1-404) with C111S
modifications: /note=“Description of artificial sequence amino acid sequence of C112S mutated NR2F6”
As to B2, in test [1], the “trans-repression of CD3/CD28 activation-induced IL-17A promoter:luciferase reporter” value is given as “lost its transcriptional repressor activity”. Besides, in the test with NR2F6, the “transcriptional repressor activity (RARE reporter)” value is “lost its transcriptional repressor activity”. Besides, in test [2], the “trans-repression of CD3/CD28 activation-induced NFAT/AP-1 promoter:luciferase reporter” value is “lost its transcriptional repressor activity”.

B3: S83E: S83E mutant of NR2F6, Ser-83 phospho-mimic, DNA-binding deficient, SEQ ID NO: 8 (protein, listed as Homo sapiens)
chain: T1 sequence (P10588 1-404) with S83E
modifications: VARIANT (83)..(83) S83E mutation
Regarding B3, the “trans-repression of CD3/CD28 activation-induced IL-17A promoter:luciferase reporter” value in test [1] is “not able to suppress”. For the same molecule, the “transcriptional repressor activity (RARE reporter)” value in the test with NR2F6 is reported as “lost its transcriptional repressor activity”. In addition, the “trans-repression of CD3/CD28 activation-induced NFAT/AP-1 promoter:luciferase reporter” value in test [2] is recorded as “not able to suppress”.

B4: NR2F6-ER: conditionally activated NR2F6 estrogen-receptor ligand binding domain mutant (ERmut-LBD) fusion protein, SEQ ID NO: 10 (protein)
chain: MAMVTGGWGGPGGDTNGVDKAGGYPRAAEDDSASPPGAASDAEPGDEERPGLQVDCVVCGDKSSGKHYGVFTCEGCKSFFKRSIRRNLSYTCRSNRDCQIDQHHRNQCQYCRLKKCFRVGMRKEAVQRGRIPHSLPGAVAASSGSPPGSALAAVASGGDLFPGQPVSELIAQLLRAEPYPAAAGRFGAGGGAAGAVLGIDNVCELAWDPRNEMGASGDMRAANLWPSPLVIKHTKKNSPALSLTADQMVSALLDAEPPMIYSEYDPSRPFSEASMMGLLTNLADRELVHMINWAKRVPGFGDLNLHDQVHLLECAWLEILMIGLVWRSMEHPGKLLFAPNLLLDRNQGKCVEGMVEIFDMLLATSSRFRMMNLQGEEFVCLKSIILLNSGVYTFLSSTLKSLEEKDHIHRVLDKITDTLIHLMAKAGLTLQQQHRRLAQLLLILSHIRHMSNKGMEHLYNMKCKNVVPLYDLLLEMLDAHRLHAPASRMGVPPEEPSQTQLATTSSTSAHSLQTYYIPPEAEGFPNTI
modifications: /note=“Description of artificial sequence amino acid sequence of NR2F6 wild-type Er-LBD fusion mutant”
With B4, in the test with NR2F6-ER, the “CD3/CD28-induced NF-AT/AP-1 composite element-dependent reporter” value is “repressed”.

B5: NR2F2 wild type: the closest relative of NR2F6, used as control (protein, UniProt P24468 1-414, looked up)
COUP transcription factor 2: MAMVVSTWRDPQDEVPGSQGSQASQAPPVPGPPPGAPHTPQTPGQGGPASTPAQTAAGGQGGPGGPGSDKQQQQQHIECVVCGDKSSGKHYGQFTCEGCKSFFKRSVRRNLSYTCRANRNCPIDQHHRNQCQYCRLKKCLKVGMRREAVQRGRMPPTQPTHGQFALTNGDPLNCHSYLSGYISLLLRAEPYPTSRFGSQCMQPNNIMGIENICELAARMLFSAVEWARNIPFFPDLQITDQVALLRLTWSELFVLNAAQCSMPLHVAPLLAAAGLHASPMSADRVVAFMDHIRIFQEQVEKLKALHVDSAEYSCLKAIVLFTSDACGLSDVAHVESLQEKSQCALEEYVRSQYPNQPTRFGKLLLRLPSLRTVSSSVIEQLFFVRLVGKTPIETLIRDMLLSGSSFNWPYMAIQ
Turning to B5, the “trans-repression of CD3/CD28 activation-induced IL-17A promoter:luciferase reporter” value in test [1] is on record as “not able to suppress”. In addition, the “trans-repression of CD3/CD28 activation-induced NFAT/AP-1 promoter:luciferase reporter” value in test [2] is listed as “not able to suppress”.
